Key:
[1] = tested on: MPP5 (histidine-tagged modified proaerolysin with a PSA cleavage site)
[2] = tested on: wild-type proaerolysin from Aeromonas hydrophila
[3] = tested on: MPP1 (proaerolysin with the furin site replaced by the PSA substrate HSSKLQ)

Chain of MMP-7 (P09237 95-267): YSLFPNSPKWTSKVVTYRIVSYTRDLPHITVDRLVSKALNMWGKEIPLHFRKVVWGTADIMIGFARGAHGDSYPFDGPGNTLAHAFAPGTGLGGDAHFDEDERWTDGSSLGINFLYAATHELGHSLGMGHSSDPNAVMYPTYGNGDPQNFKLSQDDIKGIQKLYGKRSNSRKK

Substance | Amount Required for 50% Cleavage of MPP5 [1] | Specific Activity Towards MPP5 [1] | Specific Activity Towards Proaerolysin [2] | Amount Required for 50% Cleavage of Native Proaerolysin [2] | hemolysis (ratio to Triton control), MPP1 10^-8 M pre-incubated with PSA in buffer [3] | hemolysis, MPP1 in human plasma or plasma spiked with PSA (10,000 ng/ml) [3]
hK2 (human glandular kallikrein 2) | Inactive | 0 | 1610 fmol/µg/min |  |  | 
MMP-7 | Inactive | 0 | 0 | Inactive |  | 
Chymotrypsin | 31 µg | 150 nM/µg/min | 1550 nM/µg/min | 3 µg |  | 
Trypsin (Type I trypsin) | 0.813 µg | 5700 nM/µg/min | 489000 nM/µg/min | 0.0095 µg |  | 
Prostate-specific antigen (PSA), also referred as hK3 | 12.2 µg | 0.0635 nM/µg/min | 0.0156 nM/µg/min | 49.7 µg | about 45% hemolysis | no appreciable hemolysis (i.e. <1% of Triton control
Furin | > 0.0032 µg | 0.24 nM/µg/min | 9.69 nM/µg/min | 0.0012 µg |  | 
Thrombin | > 12 µg | < 7.8e-07 nM/µg/min | < 7.8e-07 nM/µg/min | > 12 µg |  | 
uPA | 173 µg | 1.1 fmol/µg/min | 25.8 fmol/µg/min | 7.79 µg |  | 
hK1 (activated by thermolysin) | Inactive | 0 | 15.3 fmol/µg/min | 2.63 µg |  | 
Cathepsin B (cysteine protease) | 170 units | 1.2 fmol/µg/min | 3.9 fmol/µg/min | 51.6 units |  | 

Reference: US20100233191
